Measurements published in US20200199209A1 (JIANGSU HENGRUI MEDICINE, published 2020).

Legend:
human sclerostin (SOST) [1] = biological target: T1, human sclerostin (SOST) (human, UniProt Q9BQB4 24-213); assay: ELISA binding to human sclerostin (Test Example 1)
T1 construct: also called human SOST; h-SOST
T1 sequence (looked up): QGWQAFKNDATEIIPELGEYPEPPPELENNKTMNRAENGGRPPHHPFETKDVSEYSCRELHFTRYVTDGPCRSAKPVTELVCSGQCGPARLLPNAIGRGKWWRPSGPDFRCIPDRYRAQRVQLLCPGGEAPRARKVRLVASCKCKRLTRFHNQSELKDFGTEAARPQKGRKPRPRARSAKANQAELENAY

human sclerostin (SOST) [2] = biological target: T1, human sclerostin (SOST); assay: blocking of human SOST binding to human LRP-6 (Test Example 2)

B1: murine anti-human SOST monoclonal antibody Ab-1 (antibody, V domains shown)
VH: EVQLQQSGPELVKPGTSVKIPCQTSGYTFTDYNLDWLKQRPGESLEWIGDIDPNNGDILYNQKFRDKATLTVDTSSNTAYLELRSLTSEDTAVYYCARRWAYYFDYWGQGTTLTISS
VL: NIVMTQTPKLLFVSAGDRITITCKASQSVSNDVAWYQQKPGQSPKLLIYYTSNRFTGVPDRFTGSGYGTDFTLTINTVQAEDLAVYFCQQDYSSPVTFGAGTKLELK
notes: Murine antibody from the hybridoma cell strain Ab-1; also called murine Ab-1
In the case of B1, the EC50 (human sclerostin (SOST) [1]) is reported as 0.701 nM and the IC50 (human sclerostin (SOST) [2]) is reported as 9.91 nM.
